B1: CNGA1 subunit of the bovine rod CNG channel (natural protein, UniProt Q00194 1-690, looked up)
chain: MKKVIINTWHSFVNIPNVVGPDVEKEITRMENGACSSFSGDDDDSASMFEESETENPHARDSFRSNTHGSGQPSQREQYLPGAIALFNVNNSSNKEQEPKEKKKKKKEKKSKPDDKNENKKDPEKKKKKEKDKDKKKKEEKGKDKKEEEKKEVVVIDPSGNTYYNWLFCITLPVMYNWTMIIARACFDELQSDYLEYWLAFDYLSDVVYLLDMFVRTRTGYLEQGLLVKEERKLIDKYKSTFQFKLDVLSVIPTDLLYIKFGWNYPEIRLNRLLRISRMFEFFQRTETRTNYPNIFRISNLVMYIIIIIHWNACVYFSISKAIGFGNDTWVYPDVNDPDFGRLARKYVYSLYWSTLTLTTIGETPPPVRDSEYFFVVADFLIGVLIFATIVGNIGSMISNMNAARAEFQARIDAIKQYMHFRNVSKDMEKRVIKWFDYLWTNKKTVDEREVLKYLPDKLRAEIAINVHLDTLKKVRIFADCEAGLLVELVLKLQPQVYSPGDYICKKGDIGREMYIIKEGKLAVVADDGITQFVVLSDGSYFGEISILNIKGSKAGNRRTANIKSIGYSDLFCLSKDDLMEALTEYPDAKGMLEEKGKQILMKDGLLDINIANAGSDPKDLEEKVTRMESSVDLLQTRFARILAEYESMQQKLKQRLTKVEKFLKPLIDTEFSAIEGSGTESGPTDSTQD
B2: CNGB1 subunit of the bovine rod CNG channel (natural protein)
chain: MLGWVQRVLPQPPGTPQKTKQEEEGTEPEPELEPKPETAPEETELEEVSLPPEEPCVGKEVAAVTLGPQGTQETALTPPTSLQAQVSVAPEAHSSPRGWVLTWLRKGVEKVVPQPAHSSRPSQNIAAGLESPDQQAGAQILGQCGTGGSDEPSEPSRAEDPGPGPWLLRWFEQNLEKMLPQPPKISEGWRDEPTDAALGPEPPGPALEIKPMLQAQESPSLPAPGPPEPEEEPIPEPQPTIQASSLPPPQDSARLMAWILHRLEMALPQPVIRGKGGEQESDAPVTCDVQTISILPGEQEESHLILEEVDPHWEEDEHQEGSTSTSPRTSEAAPADEEKGKVVEQTPRELPRIQEEKEDEEEEKEDGEEEEEEGREKEEEEGEEKEEEEGREKEEEEGEKKEEEGREKEEEEGGEKEDEEGREKEEEEGRGKEEEEGGEKEEEEGRGKEEVEGREEEEDEEEEQDHSVLLDSYLVPQSEEDRSEESETQDQSEVGGAQAQGEVGGAQALSEESETQDQSEVGGAQDQSEVGGAQAQGEVGGAQEQDGVGGAQDQSTSHQELQEEALADSSGVPATEEHPELQVEDADADSRPLIAEENPPSPVQLPLSPAKSDTLAVPGSATGSLRKRLPSQDDEAEELKMLSPAASPVVAWSDPTSPQGTDDQDRATSTASQNSAIINDRLQELVKLFKERTEKVKEKLIDPDVTSDEESPKPSPAKKAPEPAPEVKPAEAGQVEEEHYCEMLCCKFKRRPWKKYQFPQSIDPLTNLMYILWLFFVVLAWNWNCWLIPVRWAFPYQTPDNIHLWLLMDYLCDLIYLLDITVFQMRLQFVRGGDIITDKKEMRNNYVKSQRFKMDMLCLLPLDLLYLKFGVNPLLRLPRCLKYMAFFEFNNRLESILSKAYVYRVIRTTAYLLYSLHLNSCLYYWASAYEGLGSTHWVYDGVGNSYIRCYYWAVKTLITIGGLPDPRTLFEIVFQGLNYFTGVFAFSVMIGQMRDVVGAATAGQTYYRSCMDSTVKYMNFYKIPRSVQNRVKTWYEYTWHSQGMLDESELMVQLPDKMRLDLAIDVNYSIVSKVALFQGCDRQMIFDMLKRLRSVVYLPNDYVCKKGEIGREMYIIQAGQVQVLGGPDGKSVLVTLKAGSVFGEISLLAVGGGNRRTANVVAHGFTNLFILDKKDLNEILVHYPESQKLLRKKARRMLRNNNKPKEKSVLILPPRAGTPKLFNAALAAAGKMGAKGGRGGRLALLRARLKELAALEAAARQQQLLEQAKSSEDAAVGEEGSASPEQPPRPEPPAPEAPAPEPTAPEPLAPEAPAPEAPAPSSPPPASQERPEGDKDAARPEEHPVRIHVTLGPDPSEQILLVEVPEKQEEKEKKEEETEEKEEGEEARKEKEEE

Key:
cryo-EM structure = molecular target: the molecule itself; assay: cryo-EM structure
[1] = molecular target: B2; assay: cryo-EM structure
bovine calmodulin = bovine calmodulin (bovine, UniProt P62157 1-149); assay: limited proteolysis-coupled mass spectrometry

| binding result [1] | binding result (bovine calmodulin) | Binder | binding result (cryo-EM structure) |
| --- | --- | --- | --- |
| binds | binds | B1 | binds |
|  | binds | B2 |  |

— PMC10104587 (Proceedings of the National Academy of Sciences of the …, 2023)
